Reference: the supplement of paper PMC10567573

B1: C10orf62 (parent)
chain: GHSHHSHHGHPSHQSHSLPNRRH
B2: FBXO3 (parent)
chain: AGGFQQRQGLKYCLPLTFCIHTGL

Variants of: B1
Assay: protein stability index of a GFP-peptide fusion (GPS, HEK-293T) (PSI 1-6); higher = more stable
Conditions: c terminus: native
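Note: lentivirally expressed fusions sorted by FACS into six bins by GFP to DsRed ratio, PSI derived from sequencing read proportions per bin multiplied by bin number.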

Variant	protein stability index
H16M	2.32
H16P	2.52
H16S	3
H16T	2.08
H16V	2.2
H16W	3.05
S17A	2.08
S17C	2.65
S17D	2.43
S17E	2.14
S17F	1.8
S17G	3.77
S17I	2.64
S17M	3.01
S17P	4.04
S17Q	2.82
S17R	4.84
S17T	4.17
S17V	1.69
S17W	2.37
S17Y	4.98
L18A	3.18
L18C	2.94
L18D	1.85

Variant	protein stability index
L18E	3.19
L18F	3.24
L18G	2.38
L18H	4.06
L18I	3.49
L18K	1.51
L18M	2.16
L18N	2.88
L18P	2.11
L18Q	3.76
L18R	4.23
L18T	2.27
L18V	2.52
L18W	3.46
L18Y	2.08
P19C	2.95
P19D	3.02
P19E	2
P19F	2.38
P19G	2.35
P19H	2.4
P19K	2.15
P19L	2.28
P19N	2.4

Variant	protein stability index
P19Q	2.38
P19R	2.09
P19T	4.47
P19Y	3.05
N20A	2.97
N20D	3.58
N20E	4.47
N20F	2.31
N20G	4.22
N20H	2.44
N20I	2.29
N20K	3.23
N20L	3.05
N20M	3.84
N20P	2.07
N20Q	1.94
N20S	1.35
N20T	3.28
N20V	3.13
N20Y	2.58
R21A	1.97
R21C	4.2
R21D	2.2
R21E	2.81

Variant	protein stability index
R21F	2.13
R21G	1.71
R21H	2.67
R21I	2.36
R21K	1.94
R21L	1.81
R21M	2
R21N	2.6
R21P	2.05
R21Q	2.38
R21S	1.67
R21T	1.81
R21V	1.39
R21W	2.43
R21Y	2.17
R22A	3.28
R22D	3.39
R22E	2
R22F	2.84
R22G	2.15
R22H	4.93
R22K	4
R22L	1.29
R22M	3

Variant	protein stability index
R22P	3.56
R22Q	2.69
R22S	3.94
R22T	3.14
R22W	2.86
R22Y	2.11
H23A	2.23
H23C	2.68
H23F	2.77
H23I	2.78
H23K	4.73
H23L	3.52
H23M	2.18
H23N	3.15
H23P	2.31
H23Q	2.48
H23R	4.71
H23S	2.88
H23T	2.88
H23V	2.35
H23W	2.25
H23Y	3.4

Variants of: B2
Assay: as above
Conditions: c terminus: a fixed tail appended

Variant	protein stability index
A1C	2.76
A1D	2.89
A1E	2.57
A1F	3.41
A1G	3.9
A1H	3.55
A1I	2
A1K	1.87
A1L	2.46
A1M	3.13
A1N	2.47
A1P	2.91
A1Q	2.55
A1R	2.39
A1S	2.65
A1T	3.47
A1V	2.89
A1W	5.07
A1Y	3.08
G2C	2.6
G2D	1.68
G2E	2.36
G2F	2.79
G2H	4.03
G2I	4.2

Variant	protein stability index
G2K	3.68
G2L	2.79
G2N	2.94
G2P	2.79
G2R	2.59
G2S	3.13
G2T	1.88
G2V	2.97
G2Y	2.4
G3A	1.48
G3C	2.66
G3D	3.1
G3E	1.99
G3F	3.02
G3K	2.51
G3L	3.11
G3M	2.47
G3N	3.27
G3P	1.51
G3Q	4.36
G3R	3.24
G3S	2.44
G3T	3.31
G3V	2.54
